Target: cell surface-expressed human αvβ8 (human, UniProt P06756 31-1048; P26012 43-769)
Assay: cell-based or functional assay

Sequence of cell surface-expressed human αvβ8 (P06756 31-1048, chain 1 of 2): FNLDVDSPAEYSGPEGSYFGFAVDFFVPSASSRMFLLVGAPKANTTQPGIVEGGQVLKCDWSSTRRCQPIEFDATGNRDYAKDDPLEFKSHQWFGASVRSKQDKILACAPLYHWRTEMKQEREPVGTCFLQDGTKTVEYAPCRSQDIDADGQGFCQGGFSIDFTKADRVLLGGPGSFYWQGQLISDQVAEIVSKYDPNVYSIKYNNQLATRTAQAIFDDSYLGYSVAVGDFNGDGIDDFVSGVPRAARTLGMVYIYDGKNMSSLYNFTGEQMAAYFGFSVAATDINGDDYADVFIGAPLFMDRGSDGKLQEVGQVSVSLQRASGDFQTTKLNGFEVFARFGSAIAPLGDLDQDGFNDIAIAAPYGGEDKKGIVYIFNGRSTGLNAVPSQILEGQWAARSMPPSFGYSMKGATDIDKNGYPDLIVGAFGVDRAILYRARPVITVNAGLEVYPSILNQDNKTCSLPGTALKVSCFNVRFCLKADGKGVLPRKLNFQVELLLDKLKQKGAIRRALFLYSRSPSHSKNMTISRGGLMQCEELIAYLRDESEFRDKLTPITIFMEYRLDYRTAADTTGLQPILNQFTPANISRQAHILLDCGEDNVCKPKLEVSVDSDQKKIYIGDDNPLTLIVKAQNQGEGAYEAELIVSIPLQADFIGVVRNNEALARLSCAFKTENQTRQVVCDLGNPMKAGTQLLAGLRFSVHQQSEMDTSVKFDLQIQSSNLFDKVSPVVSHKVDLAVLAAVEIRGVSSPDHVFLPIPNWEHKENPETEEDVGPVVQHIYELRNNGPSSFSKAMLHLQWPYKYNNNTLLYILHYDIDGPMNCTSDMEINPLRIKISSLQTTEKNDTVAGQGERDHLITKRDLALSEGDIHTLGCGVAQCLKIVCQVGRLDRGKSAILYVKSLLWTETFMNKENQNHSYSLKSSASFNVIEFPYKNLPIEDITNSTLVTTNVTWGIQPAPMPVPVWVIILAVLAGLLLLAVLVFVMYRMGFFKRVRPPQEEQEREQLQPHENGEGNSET
Sequence of cell surface-expressed human αvβ8 (P26012 43-769, chain 2 of 2): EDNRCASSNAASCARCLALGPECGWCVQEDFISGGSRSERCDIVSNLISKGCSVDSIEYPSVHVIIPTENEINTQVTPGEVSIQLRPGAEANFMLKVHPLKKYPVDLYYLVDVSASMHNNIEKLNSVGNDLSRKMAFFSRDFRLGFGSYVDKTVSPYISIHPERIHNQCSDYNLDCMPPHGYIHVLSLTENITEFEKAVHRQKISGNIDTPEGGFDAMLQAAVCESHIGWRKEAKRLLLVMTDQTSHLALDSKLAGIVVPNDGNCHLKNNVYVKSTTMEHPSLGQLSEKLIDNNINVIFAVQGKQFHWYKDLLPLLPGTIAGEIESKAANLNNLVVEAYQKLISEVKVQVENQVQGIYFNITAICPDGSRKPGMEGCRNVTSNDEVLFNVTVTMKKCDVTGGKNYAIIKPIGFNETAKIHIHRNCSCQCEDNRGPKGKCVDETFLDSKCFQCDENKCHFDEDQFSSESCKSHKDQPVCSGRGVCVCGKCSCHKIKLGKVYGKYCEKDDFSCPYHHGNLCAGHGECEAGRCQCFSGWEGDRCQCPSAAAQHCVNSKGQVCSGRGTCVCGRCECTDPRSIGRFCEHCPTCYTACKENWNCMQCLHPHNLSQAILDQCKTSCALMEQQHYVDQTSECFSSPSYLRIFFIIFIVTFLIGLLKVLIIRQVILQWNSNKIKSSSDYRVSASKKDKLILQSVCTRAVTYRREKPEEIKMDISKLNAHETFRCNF

inhibition of adhesion of L229 cells expressing αvβ8 to TGFb1 LAP (potency against ADWA11): > 10 fold
B1: ADWA16 (antibody, V domains shown)
VH: QVQLQQSGAELAKPGASMKMSCKASGYTFSSYWIYWVKQRPGQGLEWIGYINPTTGYTEYNQKFRDKATLTADKSSNTAYMQLSSLTSEDSAVYYCATEGGNWEDYWGQGTTLTVSS
VL: DIQMTQTTSSLSASLGDRVTISCRASQDISNYLNWYQQKPDGTVKLLIYYTSRLYSGVPSRFSGSGSGTDYSLTISNLEPKDIATYYCQQFSELPRTFGGGTKLEIK

Source: patent US20240425601A1 (University of California, published 2024)
